# Results taken from paper PMC8828063, “High-resolution mapping of metal ions reveals principles of surface layer assembly in Caulobacter crescentus cells” (Structure(London, England:1993), 2022).
# Molecular target: the molecule itself
# Experiment: crystal structure; RsaA 30 mg/mL with 5 mM CaCl2; 0.07 M KSCN, 24% (w/v) PEG 8000, 0.075 M TAPS/NaOH pH 8.5, 19°C; stacked S-layer sheets in three-dimensional crystals; long-wavelength anomalous diffraction, molecular replacement with PDB 5N8P
protein,measurement,value
"RsaA, S-layer protein of Caulobacter crescentus (wild type, full length) (natural protein, UniProt A0A0H3C8J1 1-1026, looked up, RsaA, S-layer protein of Caulobacter crescentus CB15N (NA1000), 1,026 amino acid residues; RsaANTD is residues 1-250 and RsaACTD residues 251-1,026; Full-length protein went into crystallisation; also called SLP; wild-type RsaA; source: purified from C. crescentus CB15N (NA1000) cells by low pH exposure (HiTrap SP flow-through, HiTrap Q)) MAYTTAQLVTAYTNANLGKAPDAATTLTLDAYATQTQTGGLSDAAALTNTLKLVNSTTAVAIQTYQFFTGVAPSAAGLDFLVDSTTNTNDLNDAYYSKFAQENRFINFSINLATGAGAGATAFAAAYTGVSYAQTVATAYDKIIGNAVATAAGVDVAAAVAFLSRQANIDYLTAFVRANTPFTAAADIDLAVKAALIGTILNAATVSGIGGYATATAAMINDLSDGALSTDNAAGVNLFTAYPSSGVSGSTLSLTTGTDTLTGTANNDTFVAGEVAGAATLTVGDTLSGGAGTDVLNWVQAAAVTALPTGVTISGIETMNVTSGAAITLNTSSGVTGLTALNTNTSGAAQTVTAGAGQNLTATTAAQAANNVAVDGGANVTVASTGVTSGTTTVGANSAASGTVSVSVANSSTTTTGAIAVTGGTAVTVAQTAGNAVNTTLTQADVTVTGNSSTTAVTVTQTAAATAGATVAGRVNGAVTITDSAAASATTAGKIATVTLGSFGAATIDSSALTTVNLSGTGTSLGIGRGALTATPTANTLTLNVNGLTTTGAITDSEAAADDGFTTINIAGSTASSTIASLVAADATTLNISGDARVTITSHTAAALTGITVTNSVGATLGAELATGLVFTGGAGADSILLGATTKAIVMGAGDDTVTVSSATLGAGGSVNGGDGTDVLVANVNGSSFSADPAFGGFETLRVAGAAAQGSHNANGFTALQLGATAGATTFTNVAVNVGLTVLAAPTGTTTVTLANATGTSDVFNLTLSSSAALAAGTVALAGVETVNIAATDTNTTAHVDTLTLQATSAKSIVVTGNAGLNLTNTGNTAVTSFDASAVTGTGSAVTFVSANTTVGEVVTIRGGAGADSLTGSATANDTIIGGAGADTLVYTGGTDTFTGGTGADIFDINAIGTSTAFVTITDAAVGDKLDLVGISTNGAIADGAFGAAVTLGAAATLAQYLDAAAAGDGSGTSVAKWFQFGGDTYVVVDSSAGATFVSGADAVIKLTGLVTLTTSAFATEVLTLA",stoichiometry N,6
